The results in this text go back to article PMC2728795 (Biochemistry, 2009).

First the molecules themselves.
B1: GST(541–605)PRG (domain or fragment)
chain: GKPKSSSQSTFHIPLSPVEVKPGNVRNIIQHFENNQQYDAPEPGTQRLSTGSFPEDLLESDSSRS
B2: GST(541–605, I569A)PRG (domain or fragment)
chain: GKPKSSSQSTFHIPLSPVEVKPGNVRNIAQHFENNQQYDAPEPGTQRLSTGSFPEDLLESDSSRS
B3: GST(541–605, F572A)PRG (domain or fragment)
chain: GKPKSSSQSTFHIPLSPVEVKPGNVRNIIQHAENNQQYDAPEPGTQRLSTGSFPEDLLESDSSRS
B4: GST(541–605, E573A)PRG (domain or fragment)
chain: GKPKSSSQSTFHIPLSPVEVKPGNVRNIIQHFANNQQYDAPEPGTQRLSTGSFPEDLLESDSSRS
B5: GST(541–605, I568A)PRG (domain or fragment)
chain: GKPKSSSQSTFHIPLSPVEVKPGNVRNAIQHFENNQQYDAPEPGTQRLSTGSFPEDLLESDSSRS

For this assay, the target named is F-actin (freshly polymerized actin) (UniProt P68135 1-377). Description: co-sedimentation.
Take B1: the “percent bound at 5 µM F-actin” value was about 75%.
Regarding B2, the “percent bound at 5 µM F-actin” value was about 25%.
As for B3, the figure is about 25%.
As to B4, the “percent bound at 5 µM F-actin” value was about 25%.
For the molecule B5, the “percent bound at 5 µM F-actin” value is about 25%.
